Experimental data taken from article PMC9340540.

Columns and labels:
CHN-1 (C. elegans) [1] = experiment: SEC; S200 Superdex column; CHN-1 alone, UFD-2 alone and CHN-1 + UFD-2 mixed in equal molar ratios
CHN-1 (C. elegans) [2] = target: CHN-1 (C. elegans)
Target sequence in this assay (main, as listed by the source): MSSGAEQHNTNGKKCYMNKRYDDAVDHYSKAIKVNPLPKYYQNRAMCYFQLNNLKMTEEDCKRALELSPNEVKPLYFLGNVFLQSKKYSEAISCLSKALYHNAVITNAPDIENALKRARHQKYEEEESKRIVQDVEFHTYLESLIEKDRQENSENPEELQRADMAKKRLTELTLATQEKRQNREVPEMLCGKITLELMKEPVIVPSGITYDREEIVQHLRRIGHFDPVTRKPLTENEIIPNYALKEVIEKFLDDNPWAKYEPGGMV

Chain of UFD-2 (Q09349 whole entry): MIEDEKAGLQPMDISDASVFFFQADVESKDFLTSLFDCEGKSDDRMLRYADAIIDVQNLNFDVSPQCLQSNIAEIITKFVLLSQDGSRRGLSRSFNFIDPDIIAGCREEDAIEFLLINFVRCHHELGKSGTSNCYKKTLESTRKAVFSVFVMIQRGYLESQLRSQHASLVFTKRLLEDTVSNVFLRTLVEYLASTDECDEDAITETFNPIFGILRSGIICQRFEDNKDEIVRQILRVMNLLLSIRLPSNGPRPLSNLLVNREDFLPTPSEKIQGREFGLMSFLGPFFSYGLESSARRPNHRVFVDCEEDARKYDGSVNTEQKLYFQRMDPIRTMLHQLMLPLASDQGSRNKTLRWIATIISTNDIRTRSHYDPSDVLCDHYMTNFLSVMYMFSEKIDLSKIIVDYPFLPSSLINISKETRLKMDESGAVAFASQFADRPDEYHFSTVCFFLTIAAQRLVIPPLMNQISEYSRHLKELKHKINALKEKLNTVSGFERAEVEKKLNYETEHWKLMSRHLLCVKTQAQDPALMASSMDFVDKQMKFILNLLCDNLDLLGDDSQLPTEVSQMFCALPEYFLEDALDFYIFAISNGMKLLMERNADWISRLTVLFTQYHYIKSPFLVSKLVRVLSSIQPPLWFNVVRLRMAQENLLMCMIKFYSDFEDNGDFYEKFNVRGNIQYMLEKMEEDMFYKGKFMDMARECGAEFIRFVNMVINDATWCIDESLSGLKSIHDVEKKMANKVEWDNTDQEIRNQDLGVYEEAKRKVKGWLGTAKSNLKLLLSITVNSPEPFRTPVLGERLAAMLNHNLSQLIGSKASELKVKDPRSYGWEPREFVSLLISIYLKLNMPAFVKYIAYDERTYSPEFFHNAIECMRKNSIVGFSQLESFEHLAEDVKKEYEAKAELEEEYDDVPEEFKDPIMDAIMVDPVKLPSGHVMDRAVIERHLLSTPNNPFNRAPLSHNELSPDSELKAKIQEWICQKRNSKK

Row | Substance | stoichiometry N (CHN-1 (C. elegans) [1]) | CHN-1 auto-ubiquitylation (UBE2D1); UFD-2 titrated at 0.3, 0.65 and 1.3 μM against 1.3 μM CHN-1 (CHN-1 (C. elegans) [2]) [fold]
1 | CHN-1 (enzyme) | 2 | –
2 | UFD-2 (from UniProt Q09349 1-984) (enzyme) | – | 2
